Measurements from patent US9988424 (DUKE UNIVERSITY, dated 2018).

What was measured:
Test in all cases: ELISA, OD405 at 10 ug/ml
AE.con gp140CF = target: AE.con gp140CF
B.040 gp140C = target: B.040 gp140C
B.62357 gp140C = target: T1, B.62357 gp140C
T1 construct: also called B.62357 140C

B.63521_V1/V2 tags = target: B.63521_V1/V2 tags
B.Case A2 V1/V2 tags = target: B.Case A2 V1/V2 tags
B.con gp140CF = target: B.con gp140CF
C.1086 gp140 = target: T2, C.1086 gp140
T2 construct: also called C.1086gp140C

Con 6 gp120 = target: Con 6 gp120
D.9009SA V1/V2 tags = target: D.9009SA V1/V2 tags
G.con gp140CF = target: G.con gp140CF
AE.A244 V1V2 Tags = AE.A244 V1V2 Tags (HIV-1)
AE.A244 gp120 delta 11 = target: T3, AE.A244 gp120 delta 11 (HIV-1)
T3 construct: also called E.A244gp120Δ11; AE.A244 Δ11 gp120

C.CAP206 gp140CF.12 = C.CAP206 gp140CF.12 (HIV-1)
gp70 B.CaseA2 V1/V2 = target: T4, gp70 B.CaseA2 V1/V2 (HIV-1 V1V2 on murine leukemia virus gp70)
T4 construct: also called B.gp70CaseA2 V1/V2; gp70 B.CaseAV1V2
T4 chain: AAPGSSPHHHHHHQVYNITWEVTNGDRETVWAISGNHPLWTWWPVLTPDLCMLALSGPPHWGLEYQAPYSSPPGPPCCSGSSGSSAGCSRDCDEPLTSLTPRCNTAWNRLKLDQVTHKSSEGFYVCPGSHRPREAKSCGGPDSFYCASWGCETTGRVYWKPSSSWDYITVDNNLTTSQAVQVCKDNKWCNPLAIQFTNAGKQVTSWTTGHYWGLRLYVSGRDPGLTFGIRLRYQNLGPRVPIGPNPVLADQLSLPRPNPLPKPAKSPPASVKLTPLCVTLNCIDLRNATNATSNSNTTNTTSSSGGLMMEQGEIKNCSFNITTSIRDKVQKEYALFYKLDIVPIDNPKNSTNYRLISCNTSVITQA

C.1086 V1V2 Tags = C.1086 V1V2 Tags (HIV-1)
gp70 C.1086 V1/V2 = target: T5, gp70 C.1086 V1/V2 (HIV-1 V1V2 on murine leukemia virus gp70)
T5 construct: also called C.gp70 1086C V1V2; C.1086gp70V1V2
T5 chain: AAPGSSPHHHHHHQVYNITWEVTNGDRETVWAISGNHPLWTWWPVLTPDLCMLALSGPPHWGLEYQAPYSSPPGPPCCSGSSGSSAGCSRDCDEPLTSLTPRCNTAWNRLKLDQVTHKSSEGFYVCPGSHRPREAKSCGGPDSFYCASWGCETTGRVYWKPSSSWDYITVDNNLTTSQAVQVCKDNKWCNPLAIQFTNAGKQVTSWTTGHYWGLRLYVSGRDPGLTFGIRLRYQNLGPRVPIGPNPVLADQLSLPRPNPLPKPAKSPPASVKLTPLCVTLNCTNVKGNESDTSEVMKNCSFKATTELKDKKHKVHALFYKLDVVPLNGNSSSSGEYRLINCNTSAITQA

A.Q23 V1V2 tags = A.Q23 V1V2 tags (HIV-1)
AE.97CNG2XF gp140CF = target: T6, AE.97CNG2XF gp140CF (HIV-1)
T6 construct: also called E.97CNGX2F gp140CF

B.HXB/BAL gp140CFI = target: T7, B.HXB/BAL gp140CFI (HIV-1, UniProt P04578 33-680)
T7 construct: also called B.HxB/Ba gp140 CFI

B.9021 gp140C = B.9021 gp140C (HIV-1)
SIV CPZ US-1 gp140CF = target: T8, SIV CPZ US-1 gp140CF (SIVcpz)
T8 construct: also called US-1 SIVCPZ gp140CF
T8 chain: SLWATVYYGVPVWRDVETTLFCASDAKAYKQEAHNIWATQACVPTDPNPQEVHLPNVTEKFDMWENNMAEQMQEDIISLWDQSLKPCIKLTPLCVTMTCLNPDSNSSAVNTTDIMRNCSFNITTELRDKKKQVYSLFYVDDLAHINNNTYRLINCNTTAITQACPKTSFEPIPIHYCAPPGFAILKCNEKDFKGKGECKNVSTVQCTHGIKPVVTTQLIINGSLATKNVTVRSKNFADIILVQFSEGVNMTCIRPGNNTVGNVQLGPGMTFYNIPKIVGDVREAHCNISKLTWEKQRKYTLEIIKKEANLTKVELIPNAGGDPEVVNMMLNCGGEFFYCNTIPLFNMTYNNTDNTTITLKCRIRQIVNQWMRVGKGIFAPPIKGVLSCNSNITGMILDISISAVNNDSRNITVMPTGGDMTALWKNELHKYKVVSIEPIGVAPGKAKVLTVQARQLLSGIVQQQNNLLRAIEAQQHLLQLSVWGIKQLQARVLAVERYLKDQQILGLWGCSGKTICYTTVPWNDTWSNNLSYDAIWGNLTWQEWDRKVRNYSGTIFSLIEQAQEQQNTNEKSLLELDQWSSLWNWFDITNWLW

Measured: binding result

B1: PG9 reverted unmutated ancestor antibody (antibody, V domains shown)
VH: QVQLVESGGGVVQPGRSLRLSCAASGFTFSSYGMHWVRQAPGKGLEWVAVISYDGSNKYYADSVKGRFTISRDNSKNTLYLQMNSLRAEDTAVYYCAREAGGPDYRNGYNYYDFWSGYYNYYYMDVWGKGTTVTVSS
VL: QSALTQPASVSGSPGQSITISCTGTSSDVGSYNLVSWYQQHPGKAPKLMIYEVSKRPSGVSNRFSGSKSGNTASLTISGLQAEDEADYYCCSLTSTRRWVFGGGTKLTVL
notes: also called PG9 RUA; PG9_RUA
no binding (tested: 10 ug/ml): all assays above
